The values that follow come from article PMC11019746 (ACS Pharmacology & Translational Science, 2024).

By Emax is commonly meant the size of the effect at its maximum, as opposed to the concentration needed. The term Kd denotes a measure of binding affinity in units of concentration. The term pKi denotes the negative decadic logarithm of the Ki, by convention in mol/L. Higher therefore signals a low Ki.

The target in experiment [1] is T1, Y4R (Homo sapiens, UniProt P50391). In words: Y4R miniGsi recruitment assay (HEK293T-NlucN-mGsi/Y4R-NlucC cells). Further: relative to 1 µM hPP (100%). In kind it is cell-based. Set-up: expressed in transfected cells; host or cells: HEK293T. Conditions: read-out: miniGsi recruitment Emax ± SEM. The method, then:
Furimazine was used as nanoluciferase substrate. The original stock was diluted 1:1000 in L15-HEPES to obtain the feed solution for the assay. Data analysis was performed based on the areas under the curves (time window: 45 min starting with the agonist addition) using GraphPad Prism 5. […] Efficacies Emax correspond to the upper plateaus of the normalized concentration–response curves.

In experiment [2] the target is T2, hY4R (Homo sapiens, UniProt P50391). Briefly: Y4R radioligand competition binding, whole CHO-hY4R-Gqi5-mtAEQ cells, [3H]UR-KK200. Set-up: expressed in transfected cells; host or cells: CHO (co-expressing Gqi5 and mitochondrially targeted aequorin). Conditions: [3H]UR-KK200 c = 1 nM, read-out: pKi ± SEM hY4R (converted). The procedure:
(§1) All radioligand binding assays were performed at intact Y receptor expressing cells at 23 ± 2 °C.
(§2) (logarithmic form in the case of pKi values).
For orientation: In a radioligand displacement assay an active substance lowers the binding of a labelled ligand.

The target in the next experiment is T3, hY1R (Homo sapiens, UniProt P25929).
T3 construct: host or cells: SK-N-MC neuroblastoma cells
T3 sequence (P25929 1-384): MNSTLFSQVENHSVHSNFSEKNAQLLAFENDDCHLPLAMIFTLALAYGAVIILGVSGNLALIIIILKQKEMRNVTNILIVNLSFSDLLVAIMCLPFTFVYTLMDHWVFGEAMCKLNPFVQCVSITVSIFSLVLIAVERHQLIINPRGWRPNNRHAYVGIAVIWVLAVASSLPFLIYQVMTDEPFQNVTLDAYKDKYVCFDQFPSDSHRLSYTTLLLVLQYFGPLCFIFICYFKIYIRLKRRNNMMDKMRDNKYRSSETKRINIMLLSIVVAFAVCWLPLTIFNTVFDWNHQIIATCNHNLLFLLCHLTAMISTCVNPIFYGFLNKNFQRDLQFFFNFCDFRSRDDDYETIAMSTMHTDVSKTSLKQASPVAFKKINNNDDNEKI
In words: Y1R radioligand competition binding, whole SK-N-MC cells, [3H]UR-MK299. The following applies: SK-N-MC neuroblastoma cells, [3H]UR-MK299 c = […]; read-out: pKi ± SEM hY1R (converted). The method, then:
as §1
Competition binding assays at Y1R-expressing SK-N-MC neuroblastoma cells were performed as previously described using [^3H]UR-MK299 as radioligand (concentration: 0.15 nM).[33] […] (logarithmic form in the case of pKi values).

The target of the next experiment is T4, hY2R (Homo sapiens, UniProt P49146).
T4 construct: host or cells: CHO
T4 sequence (P49146 1-381): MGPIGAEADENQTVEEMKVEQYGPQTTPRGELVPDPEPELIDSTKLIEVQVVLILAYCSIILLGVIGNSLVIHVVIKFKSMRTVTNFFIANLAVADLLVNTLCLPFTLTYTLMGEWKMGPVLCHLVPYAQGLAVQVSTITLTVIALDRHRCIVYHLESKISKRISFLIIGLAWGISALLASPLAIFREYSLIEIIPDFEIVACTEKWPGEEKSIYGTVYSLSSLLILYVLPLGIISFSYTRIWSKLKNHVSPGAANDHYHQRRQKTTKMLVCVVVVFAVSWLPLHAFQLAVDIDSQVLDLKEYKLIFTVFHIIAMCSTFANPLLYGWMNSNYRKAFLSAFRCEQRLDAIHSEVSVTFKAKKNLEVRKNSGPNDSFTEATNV
In words: Y2R radioligand competition binding, whole CHO-hY2R cells, [3H]propionyl-pNPY. Conditions: read-out: pKi ± SEM hY2R (converted). The procedure: as §1

The target of experiment [3] is T2, hY4R. In words: Y4R Ca2+ aequorin assay (CHO-hY4R-Gqi5-mtAEQ cells). Format: cell-based. Also on record: expressed in transfected cells; host or cells: CHO (co-expressing Gqi5 and mitochondrially targeted aequorin). The method, then:
The assay was performed with live CHO-hY4R-Gqi5-mtAEQ cells as previously described (used buffer: buffer III). Measurements were carried out on a Tecan Infinite Lumi plate reader. Data analysis was performed as reported using GraphPad Prism 5 for the calculation of the area under the curve. […] Efficacies Emax correspond to the upper plateaus of the normalized concentration–response curves.

Another experiment deals with T5, hY5R (Homo sapiens, UniProt Q15761).
T5 construct: expressed in transfected cells; host or cells: HEC-1B (human endometrial cancer)
T5 sequence (Q15761 1-445): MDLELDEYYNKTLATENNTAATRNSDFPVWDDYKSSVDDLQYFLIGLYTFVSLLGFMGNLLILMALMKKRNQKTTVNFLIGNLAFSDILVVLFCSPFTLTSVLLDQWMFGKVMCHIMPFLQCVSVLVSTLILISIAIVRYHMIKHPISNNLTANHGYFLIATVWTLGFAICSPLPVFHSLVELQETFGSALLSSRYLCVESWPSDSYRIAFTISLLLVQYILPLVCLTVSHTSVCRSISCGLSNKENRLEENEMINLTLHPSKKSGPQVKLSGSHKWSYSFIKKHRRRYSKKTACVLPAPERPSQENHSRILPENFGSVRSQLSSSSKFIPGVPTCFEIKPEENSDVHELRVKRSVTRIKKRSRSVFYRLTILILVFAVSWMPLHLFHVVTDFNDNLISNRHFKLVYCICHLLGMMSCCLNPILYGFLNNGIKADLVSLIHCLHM
In words: Y5R radioligand competition binding, whole HEC-1B-hY5R cells, [3H]propionyl-pNPY. Conditions: [3H]propionyl-pNPY c = 5 nM, read-out: pKi ± SEM hY5R (converted). The method, then: as §1, §2

In experiment [4] the target is Y2 receptor (Homo sapiens) (UniProt P49146). The following applies: cited from earlier work.
The target in experiment [5] is T1, Y4R. Briefly: radioligand competition binding (137 mM Na+). The following applies: cited from earlier work.
Experiment [6] has as its target Y5 receptor (Homo sapiens) (UniProt Q15761). The following applies: cited from earlier work.
Experiment [7] addresses Y1 receptor (Homo sapiens) (UniProt P25929). Conditions: cited from earlier work.
Experiment [8] deals with T1, Y4R. Briefly: radioligand competition binding. Conditions: cited from earlier work.
Experiment [9] concerns the target 5-TAMRA-[K18,Nle17,30]hPP (2) (Homo sapiens) (UniProt P01298). The following applies: cited from earlier work.
In experiment [10] the target is Sulfo-Cy5-[K4]hPP (Homo sapiens) (UniProt P01298). Conditions: cited from earlier work.
Experiment [11] has as its target hY4R-Nluc(intraECL2) (human) (UniProt P50391).
Experiment [12] deals with human neuropeptide Y Y5 receptor (human) (UniProt Q15761). In words: radioligand binding; competition with [^3H]propionyl-pNPY (5 nM) at intact HEC-1B-hY5R cells, 23 ± 2 °C, buffer II (150 mM NaCl).
For experiment [13], the target named is T6, human neuropeptide Y Y4 receptor (wild-type, CHO-hY4R-Gqi5-mtAEQ cells) (human, UniProt P50391 1-375). In words: cell-based or functional assay.
In experiment [14] the target is human neuropeptide Y Y1 receptor (human) (UniProt P25929). In words: radioligand binding; competition with [^3H]UR-MK299 ([…]) at intact SK-N-MC cells, 23 ± 2 °C, buffer II (150 mM NaCl).
Experiment [15] has as its target T7, human neuropeptide Y Y2 receptor (human, UniProt P49146 1-381).
T7 construct: also called hY2R; source: CHO-hY2R cells (from PerkinElmer), intact cells
T7 sequence (looked up): T4 sequence (P49146 1-381)
In words: radioligand binding; competition with [^3H]propionyl-pNPY (0.5 nM) at intact CHO-hY2R cells, 23 ± 2 °C, buffer I (sodium-free). The following applies: one partner purified.

Experiment [16] concerns the target T6, human neuropeptide Y Y4 receptor …. Briefly: radioligand binding; competition with [^3H]UR-KK200 (1.0 nM) at intact CHO-hY4R-Gqi5-mtAEQ cells, 23 ± 2 °C, buffer I (sodium-free). Conditions: one partner purified.

In the case of `Cc1cc(/C=C/C=C/c2ccc(N(C)C)cc2)cc(C)[n+]1CCCn1cc(CCCCNC(=O)N=C(N)NCCC[C@@H]2NC(=O)CCC(=O)NCCCCNC(=O)N=C(N)NCCC[C@@H](C(=O)N[C@@H](CC(C)C)C(=O)N[C@@H](CCCNC(=N)N)C(=O)N[C@@H](Cc3ccc(O)cc3)C(N)=O)NC(=O)[C@H](Cc3ccc(O)cc3)NC2=O)nn1` [Compound 19], the Emax at Y4R [1] was 43 ± 1%; on hY4R [3] (read-out: Ca2+-aequorin Emax ± SEM), 64 ± 2%. Moreover, the Ki is 0.603 nM at hY4R [2], above 1000 nM at hY1R, above 1000 nM on hY2R and above 1000 nM at hY5R. Moreover, the EC50 on hY4R [3] (CHO-hY4R-Gqi5-mtAEQ cells, agonist mode, read-out: Ca2+-aequorin pEC50 ± SEM (converted)) was 56.2 nM.

As for hPP (from UniProt P01298), the Ki is above 3000 nM in experiment [4]; 0.079 nM with Y4R [5]; 17 nM in experiment [6]; 440 nM in experiment [7]; 0.1 nM with Y4R [8].

Turning to Y4 receptor (from UniProt P50391), the figures for the Kd in experiment [9] and in [10] were 26 nM and 5.6 nM, respectively.

For the molecule “human pancreatic polypeptide (from UniProt P01298 30-65)”, the pKi in experiment [11] is 7.7.

B1: cyclic peptide 11 (alkyne-functionalized precursor peptide) (peptide)
peptide: RYRLRY
modifications: N^α-succinyl; N^ω-[hex-5-ynylaminocarbonyl]-Arg at position 1; N^ω-[(aminobutyl)aminocarbonyl]-Arg at position 3; cyclized via the succinyl carboxylic group and the primary amino group of the carbamoylated arginine in position 3; C-terminal amide
notes: printed in three-letter code for the linear precursor 10: N^α-succinyl-N^ω[hex-5-ynylaminocarbonyl]-Arg-Tyr-N^ω-[(aminobutyl)aminocarbonyl]Arg-Leu-Arg-Tyr-amide; 11 is its cyclized form; source: synthetic peptide (SPPS of linear peptide 10, cyclization in solution, preparative HPLC)
As for B1, the pKi was below 5.5 in [12], below 5 in experiment [14] and below 5 in [15]. Moreover, the “EC50, miniGsi recruitment assay (HEK293T-NlucN-mGsi/Y4R-NlucC cells)” value in experiment [13] was determined as 73 nM. The molecule also displayed a Ki in experiment [16] of 0.42 nM.
